{
  "source": "patent US20220372154A1",
  "about": "(APEXIGEN, published 2022)",
  "binders": {"B1": {"name": "humanized antibody h600-25-71 (antibody, V domains shown)", "VH": "EVQLVESGGGLVQPGGSLRLSCAASGIDLSSYAMGWVRQAPGKGLEWVGDISTSGNAYYATWVKGRFTISRDNSKNTLYLQMNSLRAEDTAVYYCARADYGGETYAFDPWGQGTLVTVSS", "VL": "DIQMTQSPSSLSASVGDRVTITCQASQSISSYLNWYQQKPGKAPKLLIYSASTLASGVPSRFSGSGSGTDFTLTISSLQPEDFATYYCQQGYSDSNIDNVFGGGTKVEIK", "notes": "also called Ab 25-71; clone 25-71"}},
  "key": {"[1]": {"target": "T1, human TNFR2 expressed on cells (human, UniProt P20333 23-461)", "T1 sequence (looked up)": "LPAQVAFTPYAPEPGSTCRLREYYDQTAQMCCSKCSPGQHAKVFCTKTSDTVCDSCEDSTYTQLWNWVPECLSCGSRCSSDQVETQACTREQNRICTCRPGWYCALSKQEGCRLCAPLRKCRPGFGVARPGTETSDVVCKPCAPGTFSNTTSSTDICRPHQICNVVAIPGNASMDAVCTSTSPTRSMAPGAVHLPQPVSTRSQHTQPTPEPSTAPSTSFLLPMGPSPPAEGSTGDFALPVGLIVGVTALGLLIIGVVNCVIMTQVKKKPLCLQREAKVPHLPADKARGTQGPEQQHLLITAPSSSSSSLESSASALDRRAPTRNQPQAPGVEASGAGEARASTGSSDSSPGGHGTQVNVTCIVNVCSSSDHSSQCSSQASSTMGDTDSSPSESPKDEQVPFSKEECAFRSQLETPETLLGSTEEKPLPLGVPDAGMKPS", "assay": "cell-based or functional assay"}, "[2]": {"target": "T2, human TNFR2-His tagged protein (soluble) (human, UniProt P20333 23-257)", "T2 construct": "also called hTNFR2 (soluble); soluble TNFR2-His; not shown: His tag", "T2 sequence (looked up)": "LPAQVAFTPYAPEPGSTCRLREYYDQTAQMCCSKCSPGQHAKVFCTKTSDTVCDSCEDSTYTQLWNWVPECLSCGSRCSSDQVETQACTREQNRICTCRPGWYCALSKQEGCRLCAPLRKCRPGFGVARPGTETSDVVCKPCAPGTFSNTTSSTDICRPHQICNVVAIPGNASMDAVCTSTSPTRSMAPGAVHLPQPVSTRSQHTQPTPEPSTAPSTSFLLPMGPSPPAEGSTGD", "assay": "ELISA, soluble human TNFR2"}, "[3]": {"target": "T3, TNFR2 (as used in the Octet measurement) (UniProt P20333 23-257, limits assumed)", "T3 construct": "Probably human soluble TNFR2; the legend says only TNFR2", "T3 sequence (looked up)": "T2 sequence (looked up)", "assay": "Octet (BLI), monovalent binding"}, "[4]": {"target": "T4, TNFR-Fc (UniProt P20333 23-257, limits assumed)", "T4 construct": "Printed only as TNFR-Fc; not shown: Fc part", "T4 sequence (looked up)": "T2 sequence (looked up)", "assay": "TNF-α blocking ELISA (soluble)"}, "[5]": {"target": "T5, death receptor 6 (DR6) (UniProt O75509 42-349, limits assumed)", "T5 sequence (looked up)": "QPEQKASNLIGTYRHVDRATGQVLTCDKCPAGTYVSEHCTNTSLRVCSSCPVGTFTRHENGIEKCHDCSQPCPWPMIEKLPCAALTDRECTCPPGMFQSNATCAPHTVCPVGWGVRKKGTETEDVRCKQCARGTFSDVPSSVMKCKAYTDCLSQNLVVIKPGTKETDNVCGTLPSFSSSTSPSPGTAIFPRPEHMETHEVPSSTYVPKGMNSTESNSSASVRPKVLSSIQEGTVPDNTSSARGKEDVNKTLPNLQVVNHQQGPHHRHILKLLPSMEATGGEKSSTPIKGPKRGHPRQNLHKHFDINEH", "assay": "ELISA on coated DR6, OD 650 nm", "description": "(§1) To test binding to TNFR family members, target proteins were coated on ELISA plates at 1 μg/mL at 4° C. overnight. Plates were washed, blocked, and antibodies were added at indicated concentrations for 1 hour at RT. Positive control antibodies for each protein were used at ˜1 ug/mL. Antibodies were washed and detected with anti-human IgG HRP for 1 hour. Assay was developed using TMB substrate for 10 minutes. For cell-binding, human CD4+ T cells purified from buffy coats were cultured in flat-bottom plates with anti-CD3/CD28 for 24 hours. Cells were harvested and stained for viability, CD4, CD25 and FOXP3. Test antibody staining was detected using anti-human IgG APC. Binding titration of test antibodies was evaluated on CD4+CD25hiFOXP3+ regulatory T cells and plotted as percent binding."}, "[6]": {"target": "T6, osteoprotegerin (OPG) (UniProt O00300 22-401, limits assumed)", "T6 sequence (looked up)": "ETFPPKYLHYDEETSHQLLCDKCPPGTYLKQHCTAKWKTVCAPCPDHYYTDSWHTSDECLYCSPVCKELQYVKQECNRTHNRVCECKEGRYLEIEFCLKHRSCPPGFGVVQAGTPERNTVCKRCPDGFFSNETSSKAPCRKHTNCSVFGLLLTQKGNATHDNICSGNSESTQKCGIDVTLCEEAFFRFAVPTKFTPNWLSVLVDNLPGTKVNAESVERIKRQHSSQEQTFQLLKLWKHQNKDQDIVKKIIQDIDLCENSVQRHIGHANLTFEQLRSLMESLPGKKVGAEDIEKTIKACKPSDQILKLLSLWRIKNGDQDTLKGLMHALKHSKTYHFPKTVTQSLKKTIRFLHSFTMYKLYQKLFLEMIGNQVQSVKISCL", "assay": "ELISA on coated OPG, OD 650 nm", "description": "as §1"}, "[7]": {"target": "T7, herpesvirus entry mediator (HVEM) (UniProt Q92956 39-202, limits assumed)", "T7 sequence (looked up)": "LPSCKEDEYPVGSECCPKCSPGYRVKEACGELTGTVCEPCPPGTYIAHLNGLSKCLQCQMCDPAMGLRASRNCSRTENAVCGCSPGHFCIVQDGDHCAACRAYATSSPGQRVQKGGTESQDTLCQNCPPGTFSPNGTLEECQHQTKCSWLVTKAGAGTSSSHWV", "assay": "ELISA on coated HVEM, OD 650 nm", "description": "as §1"}, "[8]": {"target": "CD40 (UniProt P25942 21-193, limits assumed)", "sequence (P25942 21-193 limits assumed)": "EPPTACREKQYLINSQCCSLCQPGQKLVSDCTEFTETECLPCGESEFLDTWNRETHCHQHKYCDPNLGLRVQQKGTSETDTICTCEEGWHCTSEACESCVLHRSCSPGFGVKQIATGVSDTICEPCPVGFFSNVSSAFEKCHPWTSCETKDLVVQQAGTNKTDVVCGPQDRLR", "assay": "ELISA on coated CD40, OD 650 nm", "description": "as §1"}, "[9]": {"target": "T1, human TNFR2 expressed on cells", "assay": "flow cytometry, cell-expressed human TNFR2"}, "[10]": {"target": "T2, human TNFR2-His tagged protein (soluble)", "assay": "ELISA on coated hTNFR2-His, OD 450 nm"}, "[11]": {"target": "T1, human TNFR2 expressed on cells", "assay": "blocking of biotinylated TNF-α on TNFR2-CHO cells, flow cytometry", "description": "TNFR2-overexpressing CHO cells were plated at 100,000 cells per well. Cells were incubated with the indicated antibodies for 30 minutes on ice. […] Cells were analyzed using Cytoflex or MACSQuant flow cytometer. Assay was repeated twice."}, "[12]": {"target": "T1, human TNFR2 expressed on cells", "assay": "flow cytometry on cells expressing human TNFR2, MFI median"}},
  "data": [
    {"binder": "B1", "values": [
      {"measurement": "ADCC EC50 (reporter line)", "setting": "[1]", "result": 1.14, "unit": "nM"},
      {"measurement": "ADCP EC50", "setting": "[1]", "result": 0.71, "unit": "nM"},
      {"measurement": "EC50", "setting": "[2]", "result": 0.159, "unit": "nM"},
      {"measurement": "koff", "setting": "[3]", "result": 0.000553, "unit": "s⁻¹"},
      {"measurement": "kon", "setting": "[3]", "result": 358000, "unit": "M⁻¹ s⁻¹"},
      {"measurement": "IC50", "setting": "[4]", "result": 1.96, "unit": "nM"},
      {"measurement": "binding result", "setting": "[5]", "result": "no binding (tested: about 67 nM)"},
      {"measurement": "binding result", "setting": "[6]", "result": "no binding (tested: about 67 nM)"},
      {"measurement": "binding result", "setting": "[7]", "result": "no binding (tested: about 67 nM)"},
      {"measurement": "binding result", "setting": "[8]", "result": "no binding (tested: about 67 nM)"},
      {"measurement": "EC50", "setting": "[9]", "result": 0.242, "unit": "nM"},
      {"measurement": "EC50 (read off the curve)", "setting": "[10]", "result": "~0.2", "unit": "nM"},
      {"measurement": "IC50", "setting": "[11]", "result": 0.149, "unit": "nM"},
      {"measurement": "EC50 (read off the curve)", "setting": "[12]", "result": "~0.3", "unit": "nM"}
    ]}
  ]
}
